The source of these data is publication PMC4298689 (The Journal of Cell Biology, 2015).

Non-standard residues stand in square brackets, D forms with d. No end group written: not given here. pT = C[C@@H](OP(=O)(O)O)[C@H](N)C(=O)O

Sequences and labels used below:
T1: His6-tagged recombinant Mis12C containing Dsn1-WT (human, UniProt Q9H410 1-356; Q96IY1 1-258; Q9H081 1-205; Q6P1K2 1-205)
T1 sequence (looked up) 1: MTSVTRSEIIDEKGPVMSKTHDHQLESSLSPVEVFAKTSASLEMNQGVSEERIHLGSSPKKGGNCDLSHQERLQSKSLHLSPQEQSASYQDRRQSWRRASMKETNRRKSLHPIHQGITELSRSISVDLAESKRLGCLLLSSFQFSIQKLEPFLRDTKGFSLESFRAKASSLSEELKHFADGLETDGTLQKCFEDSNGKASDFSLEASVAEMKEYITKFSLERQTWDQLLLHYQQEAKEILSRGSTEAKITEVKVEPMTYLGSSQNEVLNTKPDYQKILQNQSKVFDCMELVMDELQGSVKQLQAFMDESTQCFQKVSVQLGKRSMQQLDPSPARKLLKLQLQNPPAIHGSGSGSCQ
T1 sequence (looked up) 2: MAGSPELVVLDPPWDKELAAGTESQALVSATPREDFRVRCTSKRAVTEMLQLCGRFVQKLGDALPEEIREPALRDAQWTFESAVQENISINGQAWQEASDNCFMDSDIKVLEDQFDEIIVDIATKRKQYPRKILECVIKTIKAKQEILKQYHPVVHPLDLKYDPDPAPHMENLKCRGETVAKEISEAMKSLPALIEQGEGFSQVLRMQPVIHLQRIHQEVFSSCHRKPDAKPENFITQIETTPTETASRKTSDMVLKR
T1 sequence (looked up) 3: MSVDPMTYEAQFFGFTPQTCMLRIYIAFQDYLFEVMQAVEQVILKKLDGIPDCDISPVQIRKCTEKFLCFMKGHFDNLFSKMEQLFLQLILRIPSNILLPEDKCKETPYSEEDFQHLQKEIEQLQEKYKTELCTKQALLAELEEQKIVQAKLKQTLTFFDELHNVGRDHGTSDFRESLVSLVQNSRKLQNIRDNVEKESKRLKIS
T1 sequence (looked up) 4: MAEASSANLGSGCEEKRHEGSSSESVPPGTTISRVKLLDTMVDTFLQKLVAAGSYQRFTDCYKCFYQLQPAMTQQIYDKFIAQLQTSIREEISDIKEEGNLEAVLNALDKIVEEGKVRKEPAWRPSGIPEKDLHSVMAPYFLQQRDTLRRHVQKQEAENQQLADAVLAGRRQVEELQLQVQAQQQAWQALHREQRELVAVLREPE

B1: Spc24–Spc25 complex (Spc24^92–197, Spc25^70–224) (complex, human)
chain 1: EEDTRLKASLLQLTRELEELKEIEADLERQEKEVDEDTTVTIPSAVYVAQLYHQVSKIEWDYECEPGMVKGIHHGPSVAQPIHLDSTQLSRKFISDYLWSLVDTEW
chain 2: RQNKLIQEKKDNLLKLIAEVKGKKQELEVLTANIQDLKEEYSRKKETISTANKANAERLKRLQKSADLYKDRLGLEIRKIYGEKLQFIFTNIDPKNPESPFMFSLHLNEARDYEVSDSAPHLEGLAEFQENVRKTNNFSAFLANVRKAFTATVYN
B2: Recombinant Mis12C-WT (construct not told for this experiment) (complex)
chain 1: T1 sequence (looked up) 1
chain 2: T1 sequence (looked up) 2
chain 3: T1 sequence (looked up) 3
chain 4: T1 sequence (looked up) 4
B3: synthetic phospho-T85 CENP-T peptide containing residues 80–104 (peptide, UniProt Q96BT3 80-104, looked up)
peptide: HLEEQ[pT]PRTLLKNILLTAPESSILM

In one assay the target is CENP-C (UniProt Q03188). The experiment in a line: anti-GFP IP, immunoblot. The conditions noted are these: reference: Dsn1-WT-GFP; sites S100,S109.
Assay [1] addresses T1, His6-tagged recombinant Mis12C …. The experiment in a line: pull-down.
Assay [2] concerns the target fluorescein-labeled CENP-C^1–28 peptide (human, 5FAM (fluorescein) on the N-terminus). The experiment in a line: MST.
In assay [3] the target is B1. The experiment in a line: pull-down.

As to “Dsn1 (from UniProt Q9H410) Dsn1-S100A/S109A-GFP”, the “binding against the reference” value with CENP-C is “weaker”.

In the case of B1, in assay [1], the binding result is given as “binds”.

The term Kd denotes the constant that tells how readily two partners part at equilibrium. Low readings indicate tighter binding, high ones weaker binding. B2: in assay [2], binding was put at a Kd of 2100 ± 400 nM.

B3: the binding result in assay [3] is given as “binds”.
